Experimental data: paper PMC10165346 (Computational and Structural Biotechnology Journal, 2023)

B1: FLAG-tagged full-length mouse TRIM56, wild type (natural protein, UniProt Q80VI1 1-734, looked up)
chain: MNSKVSSPTLLEALSSDFLACKICLEQLHTPKTLPCLHTYCQDCLAQLDIGGQVRCPECREIVPVPAEGVAAFKTNFFVNGLLDLVKARAPGDVHSGKPTCALCPLVGGKSSGGPATARCLDCADDLCQACADGHRCSRQTHKHRVVDLVGYRAGWYDEEARERQASQCPQHPGEALCFLCQPCSQLLCKDCRLGPHIDHPCLPLAEAVRSRKPGLEELLAGVDSNLVELEATRVAEKEALALLREQAASVGTQVEEAAERILKSLLAQKQEVLGQLRALVEAAEEATRERLTKIERQEQVAKAAAAFARRVLSLGLEAEILSLEGAITQRLRQLQDAPWTSGPTRCVLPQLELHPGLEDKNCHLLRLIFEEPKQSPKDSGKGGAGTQGGDEAQGQGDDRTKIGKQGGAQPLTPKEGKDQNPQEDDGVFIERGNRPNKKKKCKGRGKSVSREPSPILRPNLEGSGLLPRPVFSWSFPTRMPGDKRSPRITGLCPYGPQEILVADEQNRVLKRFSLNGDYKGTVQVPEGCSPCSVAALQNAVAFSANAKLYLVSPDGEIQWRRSLSLTQSSHAVAAMPCGDRVAVSVAGHVEVYKKDGSLATRFIPGGKASRGQRALVFLTTSPQGNFVGSDWQQNSVVFCDGLGQVIWEYKGPGLHGCQPGSVSVDKKGYIFLTLREVNKVVILDPKGSLLGDFLTAYHGLEKPRVTTMVDGKYLVVSLSNGTIHVFRVRFPDS
B2: mouse TRIM56 coiled-coil domain (residues 215-303) (domain or fragment, UniProt Q80VI1 215-303, looked up)
chain: GLEELLAGVDSNLVELEATRVAEKEALALLREQAASVGTQVEEAAERILKSLLAQKQEVLGQLRALVEAAEEATRERLTKIERQEQVAK
B3: mouse TRIM56 RING domain (residues 2-88) (domain or fragment, UniProt Q80VI1 2-88, looked up)
chain: NSKVSSPTLLEALSSDFLACKICLEQLHTPKTLPCLHTYCQDCLAQLDIGGQVRCPECREIVPVPAEGVAAFKTNFFVNGLLDLVKA
B4: mouse TRIM56 coiled-coil domain mutant (L244A, V251A, V255A, I262A, L266A, Q269A, V273A, Q276A, L277A, L280A, R291A) (domain or fragment, UniProt Q80VI1 215-303, looked up)
chain: GLEELLAGVDSNLVELEATRVAEKEALALAREQAASAGTQAEEAAERALKSALAAKQEALGAARAAVEAAEEATREALTKIERQEQVAK

What was measured:
cross-linking = biological target: the molecule itself; assay: cross-linking
SEC-MALS = biological target: the molecule itself; assay: SEC-MALS

Row | Protein | stoichiometry N (cross-linking) | stoichiometry N (SEC-MALS)
1 | B1 | 4 | 
2 | B2 |  | 4
3 | B3 |  | 2
4 | B4 |  | 2
